# B1: human IFI16 pyrin domain (IFI16^PYD, residues 1-94) with C-terminal His6-tag (domain or fragment, UniProt Q16666 1-94, looked up)
# chain: MGKKYKNIVLLKGLEVINDYHFRMVKSLLSNDLKLNLKMREEYDKIQIADLMEEKFRGDAGLGKLIKIFEDIPTLEDLAETLKKEKLKVKGPAL
# notes: Interferon-inducible protein 16 (IFI16), human, pyrin domain, residues 1-94; Assembles into a helical filament; the number of protomers in a filament is open-ended; also called recombinant IFI16^PYD; pET21b IFI16^PYD-His6; source: E. coli BL21(DE3), purified (Ni-NTA, Superdex 75 size exclusion)
# Molecular target: the molecule itself
# Experiment: cryo-EM structure; filament auto-assembled by recombinant IFI16^PYD; 73 uM in 40 mM HEPES pH 7.4, 160 mM NaCl, 1 mM EDTA, 1 mM DTT; helical reconstruction, 3.3 Å
protein,measurement,value
B1,binding result,binds

# Reference: PMC12705702, “Structural insights into the atypical filament assembly of pyrin domain-containing IFI16” (The EMBO Journal, 2025)
